The record followed here is article PMC6736767.

Like-named read-outs stand apart in the source and are kept apart here.

Data set [1] concerns the target T1, BpuR (Borrelia burgdorferi, UniProt O51076 1-122).
T1 sequence: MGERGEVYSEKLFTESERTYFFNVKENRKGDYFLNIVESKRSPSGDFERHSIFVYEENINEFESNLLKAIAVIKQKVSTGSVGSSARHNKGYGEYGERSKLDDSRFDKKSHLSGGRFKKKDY
Description: EMSA.

The target in data set [2] is T1, BpuR. Description: EMSA. The source holds these as a separate data set. Background: A gel shift assay detects complexes by their altered migration in electrophoresis.

B1: sodA1 (ssRNA)
RNA: AAUGAGCCUUGUUAUUGUGGAAGUGGGAAGAAAUAUAAAAAUUGUCAUGGCAAAAGUUA
With B1, the binding result with BpuR [1] is on record as “binds”.

B2: bpuR RNA (ssRNA)
RNA: ACGUUAAAUGUAGUCAAGUACAAAAACUUGUGUGGAGGAAAUUGAUGGGAGAGAGAGGGGAAGUAUACU
With B2, the binding result with BpuR [1] is “binds”.

B3: sodA2 (ssRNA)
RNA: UCAUGGCAAAAGUUAAAACAGGAGGUUUUUAUGUUUAAGCUGCCAGAACUUGGUUAUGAU
For the molecule B3, in the data set with BpuR [2], the binding result is given as “no binding”.
